Data reported in patent US5686294A.

Substrate: O=C(O)CC(=O)C(=O)O
Assay: purified protein, by the assay type
Details: other: recombinant enzyme from Escherichia coli JM109 (pMDH1) (Example 6, Table 4)

B1: heat-resistant malate dehydrogenase (MAD) of Bacillus stearothermophilus ATCC 12016 gene, produced by Escherichia coli JM109 (pMDH1), amino acid sequence SEQ … (protein)
chain: MAMKRKKISVIGAGFTGATTAFLLAQKELGDVVLVDIPQLENPTKGKALDMLEASPVLGFDANIIGTSDYADTADSDIVVITAGIARKPGMSRDDLVTTNQKIMKQVTKEVVKYSPNCYIIVLTNPVDAMTYTVFKESGFPKNRVIGQSGVLDTARFRTFVAEELNISVKDVTGFVLGGHGDDMVPLVRYSYAGGIPLEKLIPKDRLDAIVERTRKGGGEIVNLLGNGSAYYAPAASLVEMVEAILKDQRRILPAIAYLEGEYGYEGIYLGVPTILGGNGIEKVIELELTEEEKARSPNPSNPLKMSCACWNSGEAKIRALPGFLSHSQ
How did the Km turn out when B1 was run?
Its Km is 4.3 µM.
